Experiments:
[1] = biological target: T1, IL2R(bg)-Fc construct (human IL2R beta extracellular domain fused to Fc(knob) with avi tag, human IL2R gamma … (human, biotin on the C-terminal avi tag (co-expressed BirA))); assay: ELISA: biotinylated IL2R(bg)-Fc coated on neutravidin plates, clone in bacterial supernatant bound at pH 6, washing and 30 min incubation at pH 6.0, 6.5, 7.0 or 7.4, detection with anti-Flag/HRP; absorption at pH 6 set to 1
T1 construct: Knob-into-hole Fc heterodimer; also called IL2Rβγ; human heterodimeric IL-2 receptor beta/gamma
Description: (§1) FIG. 4. Binding analysis for the second set of selected pH-dependent IL2v variants to IL2Rfβγ at pH 6, pH 6.5, pH 7 and pH 7.4 by ELISA. Bacterial supernatants containing clonal pH-dependent IL2v variants were incubated with previously coated IL2Rfβγ. Prior to the detection by an anti-Flag/HRP secondary antibody, extensive washing for 30 minutes was performed at pH 6 or pH 7.4. The absorption at pH 6 was normalized to a value of 1 and the ratio of absorption levels was compared.
25 μl of 50 nM biotinylated antigen per well were coated at pH 6 on 384-well neutravidin plates and blocked with 2% BSA (50 mM BisTris 140 mM NaCL, 2% BSA, pH 6). Bacterial supernatants containing soluble variants of IL2v were re-buffered to pH 6, added to the plates and incubated for 1 h. Subsequently, several washing steps were performed at either pH 6 or pH 7.4 followed by an incubation step in washing buffer for 30 min at the respective pH. Binding of pH-dependent IL2v variants to the IL2R(bg)-Fc construct was detected via Flag tag by using an anti-Flag/HRP secondary antibody. Comparison of the signal between the two conditions (pH6 vs pH7.4) allowed identifying clones that bind in a pH-dependent manner. The phagemid expressing the parental IL2v construct was used as an internal control for a pH-independent signal. Clones with a binding ratio at pH 6 versus pH 7 that greater than 10 were short-listed and re-tested in order to confirm their pH-dependency.
In order to further characterize the selected pH-dependent IL2v variants, they were analyzed for their binding to IL2R(bg)-Fc under four different pH conditions including pH 6, pH 6.5, pH 7, and pH 7.4. Binding at pH 6 was normalized to 1 in order to better compare binding among all clones. […] In general, binding intensity at pH 7 and pH 7.4 was reduced between 10-100-fold

[2] = biological target: T1, IL2R(bg)-Fc construct (human IL2R beta …); assay: ELISA: biotinylated IL2R(bg)-Fc coated on neutravidin plates, clone in bacterial supernatant bound at pH 6, washing and 30 min incubation at pH 6 or pH 7.4, detection with anti-Flag/HRP; absorption at pH 6 set to 1
Description: as §1, with “FIG. 3.” for “FIG. 4.”, “the first” for “the second”, “pH 6” for “pH 6, pH 6.5, pH 7”
25 μl of 50 nM biotinylated antigen per well were coated at pH 6 on 384-well neutravidin plates and blocked with 2% BSA (50 mM BisTris 140 mM NaCl, 2% BSA, pH 6). Bacterial supernatants containing soluble variants of IL2v were re-buffered to pH 6, added to the plates and incubated for 1 h. Subsequently, several washing steps were performed at either pH 6 or pH 7.4 followed by an incubation step in washing buffer for 30 min at the respective pH. Binding of pH-dependent IL2v variants to the IL2R(bg)-Fc construct was detected via Flag tag by using an anti-Flag/HRP secondary antibody. Comparison of the signal between the two conditions (pH 6 vs pH 7.4) allowed identifying constructs that bind in a pH-dependent manner. The phagemid expressing the parental IL2v construct was used as an internal pH-independent control. […] (FIG. 3), were selected (SEQ ID NOs 5-19) and converted into one-armed (OA) targeted conjugates.

T1 sequence (chain, as listed by the source limits assumed, chain 1 of 2): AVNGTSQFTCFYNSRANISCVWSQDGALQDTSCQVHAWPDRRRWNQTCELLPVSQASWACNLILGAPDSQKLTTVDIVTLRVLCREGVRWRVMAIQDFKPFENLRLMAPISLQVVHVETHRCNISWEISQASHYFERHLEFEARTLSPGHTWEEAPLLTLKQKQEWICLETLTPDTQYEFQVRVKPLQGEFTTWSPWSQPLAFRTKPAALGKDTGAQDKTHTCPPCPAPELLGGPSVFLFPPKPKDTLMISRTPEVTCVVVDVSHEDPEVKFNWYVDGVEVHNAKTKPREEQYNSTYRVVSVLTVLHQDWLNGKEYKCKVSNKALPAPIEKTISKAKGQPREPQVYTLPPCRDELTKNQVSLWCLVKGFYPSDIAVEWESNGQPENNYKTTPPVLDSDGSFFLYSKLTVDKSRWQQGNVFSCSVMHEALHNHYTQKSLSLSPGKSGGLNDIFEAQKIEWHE
T1 sequence (chain, as listed by the source limits assumed, chain 2 of 2): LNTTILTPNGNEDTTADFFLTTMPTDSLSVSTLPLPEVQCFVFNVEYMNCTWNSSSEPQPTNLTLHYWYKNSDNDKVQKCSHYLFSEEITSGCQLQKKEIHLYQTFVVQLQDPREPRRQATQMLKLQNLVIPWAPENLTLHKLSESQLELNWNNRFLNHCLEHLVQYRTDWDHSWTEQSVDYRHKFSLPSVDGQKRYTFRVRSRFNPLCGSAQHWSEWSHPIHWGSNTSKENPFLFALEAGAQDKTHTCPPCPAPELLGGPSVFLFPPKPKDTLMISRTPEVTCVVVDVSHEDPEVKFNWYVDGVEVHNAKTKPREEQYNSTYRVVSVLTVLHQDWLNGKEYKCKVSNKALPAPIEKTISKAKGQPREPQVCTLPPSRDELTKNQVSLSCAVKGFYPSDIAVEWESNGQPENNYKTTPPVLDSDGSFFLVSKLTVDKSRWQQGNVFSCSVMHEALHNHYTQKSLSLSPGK

B1: ExplResOnc.P177.0035 (IL2v (consensus all)) (ligand, not shown: large carriers)
chain: APASSSTKKTELQLQELLDDLQMILNGINNYKNPKLTRMLTAKFAMPKKATELKHLQCLEEELKPLEEVLNGAQSKNFHLDPRELIENINVIVLELKGSETTFMCEYADETATIVEFLNHWITFAQSIIETLE
notes: as m20
B1: binds [1].

B2: ExplResOnc.P177.0036 (ligand, not shown: large carriers)
chain: APASSSTKKTELQLQELLDDLQMILNGINNYKNPKLTRMLTAKFAMPKKATELKHLQCLEEELKPLEEVLNGAQSKNFHLQPRELIENINVIVLELKGSETTFMCEYADETATIVEFLNHWITFAQSIIETLE
notes: as m20
B2: binds [1].

B3: ExplResOnc.P178.0145 (ligand, not shown: large carriers)
chain: APASSSTKKTEEQLENLLLDLQNILNGINNYKNPKLTRMLTAKFAMPKKATELKHLQCLEEELKPLEEVLNGAQSKNFHLEPRELISNINVIVLELKGSETTFMCEYADETATIVEFLNHWITFAQSIIETLE
notes: as m20
B3: binds [1].

B4: ExplResIEE.P026.099 (ligand)
chain: APASSSTKKTQEQLEHLLLELQNILNGINNYKNPKLTRMLTAKFAMPKKATELKHLQCLEEELKPLEEVLNGAQSKNFHLNPRELIENINVIVLELKGSETTFMCEYADETATIVEFLNEWIEFAQSIIETLN
notes: soluble pH-dependent IL2v variant in bacterial supernatant, first library; not shown: C-terminal His tag and Flag tag of the phagemid
B4: binds [2].

B5: ExplResOnc.P175.0125 (ligand, not shown: large carriers)
chain: APASSSTKKTETQLEELLDDLEMILNGINNYKNPKLTRMLTAKFAMPKKATELKHLQCLEEELKPLEEVLNGAQSKNFHLDPRELIENINVIVLELKGSETTFMCEYADETATIVEFLNHWITFAQSIIETLD
notes: as m20
B5: binds [1].

B6: ExplResOnc.P173.0182 (ligand, not shown: large carriers)
chain: APASSSTKKTELQLEELLLDLQEILNGINNYKNPKLTRMLTAKFAMPKKATELKHLQCLEEELKPLEEVLNGAQSKNFHLNPRELIENINVIVLELKGSETTFMCEYADETATIVEFLNHWITFAESIIETLE
notes: as m20
B6: binds [1].

B7: ExplResOnc.P175.0368 (ligand, not shown: large carriers)
chain: APASSSTKKTTEQLQELLDDLQMILNGINNYKNPKLTRMLTAKFAMPKKATELKHLQCLEEELKPLEEVLNGAQSKNFHLDPRELIENINVIVLELKGSETTFMCEYADETATIVEFLNEWITFAQSIIETLD
notes: as m20
B7: binds [1].

B8: ExplResOnc.P173.0156 (ligand, not shown: large carriers)
chain: APASSSTKKTESQLQNLLDDLQEILNGINNYKNPKLTRMLTAKFAMPKKATELKHLQCLEEELKPLEEVLNGAQSKNFHLEPRELIDNINVIVLELKGSETTFMCEYADETATIVEFLNHWITFAQSIIETLE
notes: as m20
B8: binds [1].

B9: ExplResOnc.P174.0173 (ligand, not shown: large carriers)
chain: APASSSTKKTETQLQELLDDLHMILNGINNYKNPKLTRMLTAKFAMPKKATELKHLQCLEEELKPLEEVLNGAQSKNFHLDPRELIENINVIVLELKGSETTFMCEYADETATIVEFLNHWITFAQSIIETLE
notes: as m20
B9: binds [1].

B10: ExplResOnc.P173.0255 (ligand, not shown: large carriers)
chain: APASSSTKKTEDHLQELLLDLEEILNGINNYKNPKLTRMLTAKFAMPKKATELKHLQCLEEELKPLEEVLNGAQSKNFHLNPRELIENINVIVLELKGSETTFMCEYADETATIVEFLNHWITFAQSIIETLE
notes: as m20
B10: binds [1].

B11: ExplResOnc.P173.0127 (ligand, not shown: large carriers)
chain: APASSSTKKTELQLEELLDDLQEILNGINNYKNPKLTRMLTAKFAMPKKATELKHLQCLEEELKPLEEVLNGAQSKNFHLDPRDLIENINVIVLELKGSETTFMCEYADETATIVEFLNHWITFAESIISTLD
notes: as m20
B11: binds [1].

B12: ExplResOnc.P173.0259 (ligand, not shown: large carriers)
chain: APASSSTKKTELQLQELLDDLQMILNGINNYKNPKLTRMLTAKFAMPKKATELKHLQCLEEELKPLEEVLNGAQSKNFHLEPRDLIENINVIVLELKGSETTFMCEYADETATIVEFLNHWITFAQSIIETLE
notes: as m20
B12: binds [1].

B13: ExplResOnc.P173.0364 (ligand, not shown: large carriers)
chain: APASSSTKKTQLQLEDLLLDLQNILNGINNYKNPKLTRMLTAKFAMPKKATELKHLQCLEEELKPLEEVLNGAQSKNFHLDPRELISNINVIVLELKGSETTFMCEYADETATIVEFLNHWITFAQSIIETLE
notes: as m20
B13: binds [1].

B14: ExplResOnc.P173.0079 (ligand, not shown: large carriers)
chain: APASSSTKKTQLQLEELLDDLEQILNGINNYKNPKLTRMLTAKFAMPKKATELKHLQCLEEELKPLEEVLNGAQSKNFHLDPRELIDNINVIVLELKGSETTFMCEYADETATIVEFLNHWITFAQSIIETLE
notes: soluble pH-dependent IL2v variant in bacterial supernatant, second library
B14: binds [1].

B15: ExplResOnc.P173.0087 (ligand, not shown: large carriers)
chain: APASSSTKKTEEQLEQLLDDLENILNGINNYKNPKLTRMLTAKFAMPKKATELKHLQCLEEELKPLEEVLNGAQSKNFHLEPRELIENINVIVLELKGSETTFMCEYADETATIVEFLNHWITFAQSIIETLE
notes: as m20
B15: binds [1].

B16: ExplResOnc.P172.0344 (ligand, not shown: large carriers)
chain: APASSYTKKTQERLEQLLLDLEQILNGINNYKNPKLTRMLTAKFAMPKKATELKHLQCLEEELKPLEEVLNGAQSKNFHLNPRELIENINVIVLELKGSETTFMCEYADETATIVEFLNHWITFAQSIIETLD
notes: as m20
B16: binds [1].

B17: ExplResOnc.P173.0239 (ligand, not shown: large carriers)
chain: APASSSTKKTELQLQELLLDLEEILNGINNYKNPKLTRMLTAKFAMPKKATELKHLQCLEEELKPLEEVLNGAQSKNFHLHPRELIENINVIVLELKGSETTFMCEYADETATIVEFLNHWITFAQSIIETLD
notes: as m20
B17: binds [1].

B18: ExplResOnc.P174.0326 (ligand, not shown: large carriers)
chain: APASSSTKKTQLQLEELLDDLDQILNGINNYKNPKLTRMLTAKFAMPKKATELKHLQCLEEELKPLEEVLNGAQSKNFHLDPRELIENINVIVLELKGSETTFMCEYADETATIVEFLNHWITFAQSIIETLE
notes: as m20
B18: binds [1].

B19: ExplResOnc.P177.0156 (ligand, not shown: large carriers)
chain: APASSSTKKTESQLEELLDDLQQILNGINNYKNPKLTRMLTAKFAMPKKATELKHLQCLEEELKPLEEVLNGAQSKNFHLDPRELIENINVIVLELKGSETTFMCEYADETATIVEFLNHWITFAQSIIETLE
notes: as m20
B19: binds [1].

B20: ExplResOnc.P173.0371 (ligand, not shown: large carriers)
chain: APASSSTKKTQLQLEELLDDLQQILNGINNYKNPKLTRMLTAKFAMPKKATELKHLQCLEEELKPLEEVLNGAQSKNFHLNPRELIDNINVIVLELKGSETTFMCEYADETATIVEFLNHWITFAQSIIETLD
notes: as m20
B20: binds [1].

B21: ExplResOnc.P174.0040 (ligand, not shown: large carriers)
chain: APASSSTKKTETQLEQLLDDLQEILNGINNYKNPKLTRMLTAKFAMPKKATELKHLQCLEEELKPLEEVLNGAQSKNFHLDPRELIENINVIVLELKGSETTFMCEYADETATIVEFLNHWITFAQSIIETLE
notes: as m20
B21: binds [1].

B22: ExplResOnc.P174.0327 (ligand, not shown: large carriers)
chain: APASSSTKKTEEHLQNLLDDLEQILNGINNYKNPKLTRMLTAKFAMPKKATELKHLQCLEEELKPLEEVLNGAQSKNFHLEPRELIDNINVIVLDLKGSETTFMCEYADETATIVEFLNHWITFAQSIISTLE
notes: as m20
B22: binds [1].

Source: patent US20240092853A1 (Hoffmann-La Roche, published 2024)
